Biological target: soybean QUAC1 from Glycine max (GmQUAC1) (soybean (Glycine max))
Assay: cryo-EM structure

“soybean QUAC1 from Glycine max (GmQUAC1) (natural protein)” showed a stoichiometry N of 2.

Source: paper doi:10.1101/2021.09.09.459598
